How the values were obtained:
[1] = biological target: T1, human MHC class II DR protein (DRA*0101/DRB1*0401), purified from PRIESS cells (human, UniProt P01903 26-254; P01911 30-266, limits assumed); assay: SPR (BIAcore), Fab, chip density 500 RU MHCII
T1 construct: mature; also called HLA-DR protein; MHCII
T1 MHC II alpha: not shown
T1 MHC II beta: not shown

[2] = biological target: T2, HLA-DR (DRA*0101/DRB1*0401) on PRIESS cells (human, UniProt P01903 26-254; P01911 30-266); assay: cell-based or functional assay
T2 MHC II alpha: not shown
T2 MHC II beta: not shown

[3] = biological target: T3, BSA (bovine, UniProt P02769 25-607); assay: ELISA, coated antigen
T3 construct: negative control antigen; also called bovine serum albumine
T3 sequence (P02769 25-607 limits assumed): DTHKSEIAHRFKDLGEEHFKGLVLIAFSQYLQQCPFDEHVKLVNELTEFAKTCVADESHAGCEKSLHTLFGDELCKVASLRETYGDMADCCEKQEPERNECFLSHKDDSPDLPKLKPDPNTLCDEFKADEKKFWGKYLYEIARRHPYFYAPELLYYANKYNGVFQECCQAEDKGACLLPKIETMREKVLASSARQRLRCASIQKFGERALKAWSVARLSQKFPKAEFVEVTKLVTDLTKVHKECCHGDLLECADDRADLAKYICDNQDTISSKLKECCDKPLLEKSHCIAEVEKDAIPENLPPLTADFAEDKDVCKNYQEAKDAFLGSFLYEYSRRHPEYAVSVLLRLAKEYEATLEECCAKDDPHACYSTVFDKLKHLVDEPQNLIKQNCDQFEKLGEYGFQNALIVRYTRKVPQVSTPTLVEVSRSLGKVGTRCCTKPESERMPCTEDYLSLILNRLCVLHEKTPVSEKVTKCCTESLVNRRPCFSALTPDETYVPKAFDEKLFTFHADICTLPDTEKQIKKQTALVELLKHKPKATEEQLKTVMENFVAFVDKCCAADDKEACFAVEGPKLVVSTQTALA

[4] = biological target: T1, human MHC class II DR protein …; assay: ELISA, coated antigen, Fab 100 ng/well, read at 370 nm
Protocol: After washing in PBS the anti-human IgG F(ab')_2-peroxidase-conjugate at a 1:10,000 dilution in TBS (supplemented with 5% w/v non-fat drymilk/0.05% v/v Tween 20) was added to each well for 1 h. Final washes were carried out in PBS followed the addition the substrate POD (Roche).

[5] = biological target: T1, human MHC class II DR protein …; assay: SPR (BIAcore), Fab, 8 preparations on 4 chips
[6] = biological target: T1, human MHC class II DR protein …; assay: BiaCore, Fab
[7] = biological target: HLA-DR on MN-60 cells (human); assay: cell-based or functional assay
[8] = biological target: HLA-DR on BJAB cells (human); assay: cell-based or functional assay
[9] = biological target: HLA-DR on BONNA-12 cells (human); assay: cell-based or functional assay
[10] = biological target: HLA-DR on MHH-CALL-4 cells (human); assay: cell-based or functional assay
[11] = biological target: T2, HLA-DR (DRA*0101/DRB1*0401) on PRIESS …; assay: cell-based or functional assay
[12] = biological target: chimeric 0401-IE class II molecule on cells of transgenic mice (human/murine chimera); assay: cell-based or functional assay
[13] = biological target: T1, human MHC class II DR protein …; assay: SPR (BIAcore), MHCII on CM5 chip

B1: MS-GPC-1 Fab (Fab, V domains shown)
VH: QVQLKESGPALVKPTQTLTLTCTFSGFSLSTSGVGVGWIRQPPGKALEWLALIDWDDDKYYSTSLKTRLTISKDTSKNQVVLTMTNMDPVDTATYYCARQYGHRGGFDHWGQGTLVTVSS
VL: DIVLTQPPSVSGAPGQRVTISCSGSSSNIGSNYVSWYQQLPGTAPKLLIYDNNQRPSGVPDRFSGSKSGTSASLAITGLQSEDEADYYCQSYDFNESVFGGGTKLTVLG
notes: Fab from pMx9_Fab: VH-CH1 with FLAG tag and STREP tag II, VL-CL; VH residue 1 is Q in Fab; also called 17-Fab; 17
Kd [1]: 820 nM | koff [1]: 0.053 s⁻¹ | kon [1]: 63900 M⁻¹ s⁻¹ | EC50 of cell killing, cross-linked Fab, bivalent agent [2]: 54 nM | binding result [3]: no binding

B2: MS-GPC-8 Fab (Fab, V domains shown)
VH: QVQLKESGPALVKPTQTLTLTCTFSGFSLSTSGVGVGWIRQPPGKALEWLALIDWDDDKYYSTSLKTRLTISKDTSKNQVVLTMTNMDPVDTATYYCARSPRYRGAFDYWGQGTLVTVSS
VL: DIVLTQPPSVSGAPGQRVTISCSGSSSNIGSNYVSWYQQLPGTAPKLLIYDNNQRPSGVPDRFSGSKSGTSASLAITGLQSEDEADYYCQSYDMPQAVFGGGTKLTVLG
notes: Fab from pMx9_Fab: VH-CH1 with FLAG tag and STREP tag II, VL-CL; VH residue 1 is Q in Fab; also called B8-Fab; B8
ELISA signal [4]: 1.06 | Kd [5]: 346 nM | koff [5]: 0.029 s⁻¹ | kon [5]: 99000 M⁻¹ s⁻¹ | Kd [6]: 346 nM | koff [6]: 0.029 s⁻¹ | kon [6]: 99000 M⁻¹ s⁻¹ | cell killing, cross-linked Fab, 4 h [7]: > 50% | cell killing, cross-linked Fab, 4 h [8]: > 50% | cell killing, cross-linked Fab, 4 h [9]: > 50% | cell killing, cross-linked Fab, 4 h [10]: > 50% | maximum capacity to kill MHH-Call 4 cells [10]: 65% | maximum killing capacity, cross-linked bivalent fragment [11]: 84% | EC50 of cell killing, cross-linked Fab, bivalent agent [2]: 31 nM | IC50 of inhibition of IL-2 secretion from T-Hyb 1 cells [12]: 110 nM (half the concentration of the Fab) | Maximum inhibition(%) of IL-2 secretion [12]: 100% | Kd [13]: 346 nM | koff [13]: 0.029 s⁻¹ | kon [13]: 99000 M⁻¹ s⁻¹
